Assay results: US11856945B2, “Methods and systems for preparing and preserving a biological sample” (Washington University, priority 2017, dated 2024)

Tests used:
Type in all cases: physicochemical
[1] = NGAL encapsulation efficiency in ZIF-8 crystals (ELISA of supernatant)
Protocol: To quantify the encapsulation efficiency, the supernatant after crystals centrifugation was collected and remaining NGAL concentration was determined using sandwich enzyme-linked immunosorbent assay (ELISA). […] The encapsulation efficiency was calculated by subtracting the remaining NGAL amount in the supernatant after encapsulation and centrifugation (concentration measured by ELISA) from the total NGAL amount.
Characterization. To characterize protein-embedded crystals, crystals were centrifuged and washed with DI water twice (8 k r.p.m. for 20 minutes). To calculate the encapsulation efficiency, the supernatant after first centrifugation was collected and assayed by ELISA. SEM images were obtained using a FEI Nova 2300 field-emission scanning electron microscope at an acceleration voltage of 10 kV. Fourier transform infrared spectroscopy (FTIR) measurements were conducted using a Nicolette Nexus 470 spectrometer. The Raman spectra were obtained using a Renishaw inVia confocal Raman spectrometer mounted on a Leica microscope with a 50× objective and a 514 nm wavelength diode laser as an illumination source. The X-ray diffraction (XRD) measurements of the samples were recorded on a Bruker D8-Advance X-ray powder diffractometer using Cu Kα radiation (λ=1.5406 Å).

[2] = Recovery/elution of NGAL from ZIF-8 crystals and paper substrates (ELISA); details: dried on paper, recovered immediately after drying; spiked NGAL amount = 100%
Text: Preliminary experiments for investigating optimal buffer to dissolve NGAL embedded ZIF-8 crystals. To completely dissolve the crystals, the final pH of the system needs to be at or below 6.0 to ensure the complete release of NGAL from ZIF-8 encapsulation. For example, in the #4 composition (0.1 M phosphate buffer at pH 6.0), the crystals cannot be completely dissolved and this leads to incomplete recovery 60%, FIG. 8). Although the initial pH of the buffer is 6.0, the basic nature of ZIF-8 precursor residue in the system increases the pH of the buffer to 6.2, leading to incomplete release and recovery.
Left bar: Recovery percentage of ZIF-8 encapsulated NGAL dried on paper using the optimized elution buffer (#9 composition, 0.2 M PBS at pH=5.6 with 2 mM EDTA and 0.1% Tween 20). Middle bar: Recovery percentage of ZIF-8 encapsulated NGAL dried on paper using the #4 composition elution buffer (0.1 M PBS at pH=6 and 0.1% Tween 20). Right bar: Recovery percentage of NGAL alone dried on paper using the conventional elution buffer recipe (PBS at pH=7.4 with 0.1% Tween 20). The samples were recovered immediately after drying. 1 ml elution buffer was used to elute each paper strip. The spiked NGAL amount was set as the reference (100% recovery).
Protein recovery. […]

[3] = Preservation of NGAL spiked in artificial urine dried on paper (ELISA)
Protocol: The efficacy was evaluated of ZIF-8 encapsulation in preserving NGAL upon exposure to harsh conditions (such as elevated temperatures) that would normally lead to protein denaturation and loss of biospecimen integrity. NGAL-spiked artificial urine dried on paper substrates, both with and without ZIF-8 encapsulation, was stored at 25, 40, or 60° C. for 1 week. Before analysis, the optimized elution buffer (0.2 M phosphate buffer at pH 5.6+Tween 20+EDTA, see Table 1 and FIGS. 8 and 9 for details) was used to elute NGAL from the paper substrates.
The slightly acidic environment (at or below pH 6) was employed to dissociate ZIF-8 crystals and release encapsulated NGAL via breaking coordination between the zinc ions and imidazolate. ZIF-8 encapsulated NGAL dried on the paper was almost fully eluted (>95%) whereas NGAL alone dried on the paper was only partially eluted (˜75%) (FIG. 9). It is important to note that ZIF-8 encapsulation prevented irreversible adsorption of proteins on the cellulose fibers by creating a crystal interface between the protein and paper substrate. […] NGAL concentration was tested by ELISA when NGAL was spiked in four different media. The same concentration of NGAL in phosphate-buffered saline (PBS) at pH 7.4 was set as the reference (100%). […] After storage and elution, the concentration of NGAL in the eluate was quantified using the NGAL sandwich ELISA. The preservation efficacy (preservation %) was calculated by comparing the NGAL amount in the eluate to the spiked NGAL amount in the artificial urine. […] NGAL added on a paper card was stored at 25, 40 or 60° C. for one week. […] The eluates were obtained by eluting paper cards dried with NGAL-spiked artificial urine with or without MOF encapsulation after storage at 40° C. for 1 week.
The preservation efficacy critically depended on the concentrations of 2-methylimidazole and zinc acetate (FIG. 14). […] The maximal preservation percentage was obtained using 160 mM of 2-methylimidazole and 40 mM of zinc acetate. […] A low preservation was noted upon using 40 mM 2-methylimidazole with 10 mM zinc acetate, which is attributed to incomplete encapsulation of NGAL under this condition (˜70% encapsulation of NGAL using 40 mM 2-methylimidazole with 10 mM zinc acetate, FIG. 7). Subsequently, using the optimal ZIF-8 precursor concentration (160 mM 2-methylimidazole and 40 mM zinc acetate), the storage time was extended under different temperatures up to 4 weeks (FIG. 11B). […] Different dried paper strips were sampled at selected time points (2, 3 or 4 weeks) to monitor possible changes in NGAL preservation. With ZIF-8 encapsulation, over 70% of NGAL on paper was preserved up to 4 weeks (the maximum time tested) at all three temperatures (25, 40 and 60° C.), as opposed to 20% preservation on samples without ZIF-8 encapsulation. […] Remarkably, 70% of NGAL on paper could be preserved within 4 weeks at 60° C., which represented an extremely harsh storage condition (a surrogate for long-term storage stability at room temperature).
Sample preparation. NGAL-spiked artificial urine (50 μg/ml of NGAL, 25 μl) or patient urine (25 μl) was first mixed with 2-methylimidazole aqueous solution (12.5 μl) and then zinc acetate dihydrate aqueous solution (12.5 μl). The final concentrations of 2-methylimidazole after mixing were 320 mM, 160 mM, 80 mM and 40 mM. The final concentrations of zinc acetate dihydrate after mixing were 80 mM, 40 mM, 20 mM and 10 mM. […]

B1: neutrophil gelatinase-associated lipocalin (protein, UniProt P80188 21-198, looked up)
Neutrophil …: QDSTSDLIPAPPLSKVPLQQNFQDNQFQGKWYVVGLAGNAILREDKDPQKMYATIYELKEDKSYNVTSVLFRKKKCDYWIRTFVPGCQPGEFTLGNIKSYPGLTSYLVRVVSTNYNQHAMVFFKKVSQNREYFKITLYGRTKELTSELKENFIRFSKSLGLPENHIVFPVPIDQCIDG
notes: urinary biomarker for acute kidney injury; human recombinant
encapsulation of NGAL ([1]; 40 mM 2-methylimidazole with 10 mM zinc acetate): ~70% | encapsulation efficiency of NGAL ([1]; NGAL spiked in artificial urine, 40 mM zinc acetate and 160 mM 2-methylimidazole): ~95% | encapsulation efficiency of NGAL ([1]; control: mixing NGAL-spiked artificial urine with pure pre-formed ZIF-8 crystals (physical adsorption)): ~10% | elution from paper substrate [2]: ~75% | NGAL preservation ([3]; paper card, 25° C., 1 week): less than 30% | NGAL preservation ([3]; paper card, 40° C., 1 week): less than 30% | NGAL preservation ([3]; paper, 25° C., up to 4 weeks, 160 mM 2-methylimidazole and 40 mM zinc acetate): 20% | NGAL preservation ([3]; paper, 40° C., up to 4 weeks, 160 mM 2-methylimidazole and 40 mM zinc acetate): 20% | NGAL preservation ([3]; paper, 60° C., up to 4 weeks, 160 mM 2-methylimidazole and 40 mM zinc acetate): 20%
